We go through 25 molecules from article PMC12167710 (Nature Biotechnology, 2024).

Substitutions are numbered along the chain they refer to.

To fix the notation:
B1: hRBD14 (antibody, V domains shown)
VH: EVQLVESGGGLVQPGGSLRLSCAASGFSFSSSDMHWVRQATGKGLEWVSGIGTSGDTYYLGSVKGRFTISRDDAKNSFYLQMNSLRAGDTAVYYCARGEMAATGLWYYFDYWGQGTLVTVSS
VL: not shown
B2: hRBD16 (antibody, V domains shown)
VH: EVQLVESGGALIQPGGSLRLSCAASGFTVSSNYMYWVRQAPGKGLEWVSLIYPGGSTFYADSVKGRFTISRDNSENTLYLQMNSLRAEDTAVYYCARGPYGDSNWGQGTLVTVSS
VL: DIQMTQSPSSLSASVGDRVTITCQASQDIRNYLNWYQQKPGKAPKLLIYDASNLKTGVPSRFSGSGSGTDFTFTISSLQPEDIATYYCQQYDNLPITFGQGTRLEIK
B3: hRBD11 (antibody, V domains shown)
VH: QVQLQESGPGLVKPSQTLSLTCTVSGGSISSGGYYWSWIRQHPGKGLEWIGYIFYSGSTYYNPSLKSRVIISVDTSKNQFSLKLSSVTAADTAAYYCARVNRVYGSGSYSLDPWGQGTLVTVSS
VL: QSALTQPASVSGSPGQSITISCTGTSRDVGDYDYVSWYQQHPGKAPKLMIYEGSERPSGVSNRFSGSKSGNTASLTISGLQAEDEADYYCCSYTGSSTSFLFGTGTKVTVL
B4: hRBD1 (antibody, V domains shown)
VH: QVQLVQSGSELKKPGASVKVSCKASGNTLTNHALNWVRQAPGQGLEWMGWINTNTGIPTYAQGFTGRFVFSLDTSVSTAYLQISSLKAEDTAVYYCARVGQTAIAALDDAFDIWGQGTMVTVSS
VL: not shown
B5: hRBD10 (antibody, V domains shown)
VH: EVQLVESGGGLVQPGGSLRLSCSASGFTFTTYNMNWVRQAPGKGLEWVSYISSSSSTIYYADSVEGRFTISRDNAKNSLYLQMNSLRDEDTAVYYCARGVGATSYYYHGMDVWGQGTTVSVSS
VL: DIQMTQSPSSLSASVGDRVTITCRASQSIYSYLNWYKQKAGKAPKLLIYAASSLQSGVPSRFSGSGSGTDFTLTIISLQPEDFATYYCQQSYSTPPTFGQGTKVEIK
B6: mRBD24 (antibody, V domains shown)
VH: EVQLQQSGPDLVKPGASVKISCKASGYTFTDYYMNWVKQSHGKSLEWIGDINPNNGGTYYNQKFKGKATLTVDKSSSTAYMELRSLTSEDSAVYYCARQLRRWGQGTLVTVSA
VL: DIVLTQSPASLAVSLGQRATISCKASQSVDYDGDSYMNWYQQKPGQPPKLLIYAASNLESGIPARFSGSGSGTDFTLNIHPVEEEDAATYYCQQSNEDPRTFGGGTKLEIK
B7: mRBD25 (antibody, V domains shown)
VH: QVQLQQSGPELVKPGASVKISCKASGYAFSNSWMNWVKQRPGKGLEWIGRIYPGDGDTNYNGKFKGKATLTADKSSSTAYMQLSSLTSEDSAVYFCANYYGDYWGQGTTLTVSS
VL: QIVLTQSPALMSASPGEKVTMTCSASSSVSYMYWYQQKPRSSPKPWIYLTSNLASGVPARFSGSGSGTSYSLTISSMEAEDAATYYCQQWSSNPYTFGGGTKLEIK
B8: mRBD1 (antibody, V domains shown)
VH: QVQLQQPGAELVKPGASVKVSCKASGYTFTSYWMHWVKQRPGQGLEWIGRIHPSDSDTNYNQKFKGKATLTVDKSSNTAYMQLSSLTSEDSAVYYCAILDCYWYFDVWGTGTTVTVSS
VL: QIVLTQSPAIMSASPGEKVTMTCSASSSVSYMYWYQQKPGSSPRLLIYDTSNLASGVPVRFSGSGSGTSYSLTISRMEAEDAATYYCQQWSSYPLTFGAGTKLELK
B9: mRBD5 (antibody, V domains shown)
VH: QVQLQQPGAELVKPGASVKVSCKASGYTFTSYWMHWVKQRPGQGLEWIGRIHPSDSDTNYNQKFKGKATLTVDKSSSTAYMQLSSLTSEDSAVYYCAIDWDGDYWGQGTTLTVSS
VL: DIVMSQSPSSLAVSAGEKVTMSCKSSQSLLNSRTRKNYLAWYQQKPGQSPKLLIYWASTRESGVPDRFTGSGSGTDFTLTISSVQAEDLAVYYCKQSYNLWTFGGGTKLEIK
B10: mRBD6 (antibody, V domains shown)
VH: B9 VH with I98M, G102V
VL: B9 VL with W101L, G105A, I111L
B11: mRBD12 (antibody, V domains shown)
VH: QVQLQQSGAELARPGASVKLSCKASGYTFTSYGISWVKQRTGQGLEWIGEIYPRSGNTYYNEKFKGKATLTADKSSSTAYMEVRSLTSEDSAVYFCAREGGYGYVMDYWGQGTSVTVSS
VL: DIQMTQTTSSLSASLGDRVTISCRASQDISNYLNWYQQKPDGTVKLLIYYTSRLHSGVPSRFSGSGSGTDYSFTISNLEQEDIATYFCQQGNTLPWTFGGGTKLEIK
B12: mRBD17 (antibody, V domains shown)
VH: QIQLVQSGPELKKPGETVKISCKASGYTLTEYPMHWVKQAPGKGFKWMGMIYTDTGEPTYAEEFKGRFAFSLETSASTAYLQINNLKNEDTATYFCVRAGPSFAMDYWGQGTSVTVSS
VL: B11 VL with F73L, I83F, W96Y
B13: mRBD10 (antibody, V domains shown)
VH: QVQLKQSGAELVRPGASVKLSCKASGYTFTDYYINWVKQRPGQGLEWIARIYPGSGNTYYNEKFKGKATLTAEKSSSTAYMQLSSLTSEDSAVYFCARDYGSSYVDYFDYWGQGTTLTVSS
VL: B11 VL with F73L, W96L, G100A, I106L
B14: mRBD16 (antibody, V domains shown)
VH: B12 VH
VL: NIVLTQSPASLAVSLGQRATISCRASESVDSYGNSFMHWYQQKPGQPPKLLIYLASNLESGVPARFSGSGSRTDFTLTIDPVEADDAATYYCQQNNEDPYTFGGGTKLEIK
B15: mRBD21 (antibody, V domains shown)
VH: B12 VH with L29F, E31K, F68C, A99W, P101G, F103Y, M105L
VL: B14 VL with N1D, L54R, V62I, D80N, A87V, N95S, Y100L, G104A, I110L
B16: mRBD22 (antibody, V domains shown)
VH: QIQLVQSGPELKKPGETVKISCKASGYTFTEYPMHWVKQAPGKGFKWMGMIYTDTGEPTYAEEFKGRFAFSLETSASTAYLQINNLKNEDTATYFCVRGGYYYFDYWGQGTTLTVSS
VL: B14 VL with Y100W
B17: mRBD11 (antibody, V domains shown)
VH: QVQLQQSGAELARPGASVKLSCKASGYTFISNGISWVKQRTGQGLEWIGEIYPRNGNTYYNEKFKGKATLTADKSSSTAYMELRSLTSEDSAVFFCARDYYYGNFDYWGQGTTLTVSS
VL: B14 VL
B18: mRBD15 (antibody, V domains shown)
VH: B12 VH with E10D, L29F, K46Q, A92S, F103Y
VL: B14 VL with L58V, Q93H, N95I
B19: mRBD19 (antibody, V domains shown)
VH: B12 VH with L29F, A99G, S102Y, F103Y
VL: B14 VL with Y100W
B20: mRBD20 (antibody, V domains shown)
VH: B12 VH with F103Y
VL: B14 VL with V13M, Q42L
B21: mRBD2 (antibody, V domains shown)
VH: B17 VH with N104S
VL: DIQMTQSPSSLSASLGERVSLTCRASREISGYLTWLQQKPDGTIKRLIYAASTLDSGVPKRFSGSRSGSDYSLTISSLESEDFADYYCLQYASYPWTFGGGTKLEIK
B22: mRBD23 (antibody, V domains shown)
VH: QVQLQQPGAELVRPGSSVKLSCKASGYTFTSYWMHWVKQRPIQGLEWIGNIDPSDSETHYNQKFKDKATLTVDKSSSTAYMQLSSLTSEDSAVYYCTRPGSLRSRGWYFDVWGTGTTVTVSS
VL: DIVMTQAAPSVPVTPGESVSISCRSSKSLLHSNGNTYLYWFLQRPGQSPQLLIYRMSNLASGVPDRFSGSGSGTAFTLRISRVEAEDVGVYYCMQHLEYPYTFGGGTKLEIK
B23: mRBD4 (antibody, V domains shown)
VH: QVQLQQPGAELVMPGASVKLSCKASGYTFTSYWMHWVKQRPGQGLEWIGEIDPSDSYTNYNQKFKDKSTLTVDKSSSTAYMQLSSLTSEDSAVYYCARGGVYYYGSSHYFDYWGQGTTLTVSS
VL: B22 VL with L51F, Y101F, G105S
B24: mRBD3 (antibody, V domains shown)
VH: QVQLQQPGAELVMPGTSVKLSCKASGYIFTSYWMHWVKQRPGQGLEWIGEIDPSDNYTNYNQKFKGKSTLTVDKSSSTAYMQLSSLTSEDSAVYYCARGGLYYYGSSYDAMDYWGQGTSVTVSS
VL: B22 VL with V90A, Y101F, G105S
B25: mRBD18 (antibody, V domains shown)
VH: QIQLVQSGPELKKPGETVKISCKASGYTFTDYPMHWVQQAPGKGFKWMGMIYTDTGEPTYAEEFKGRFAFSLETSASTAYLQINNLKNEDTATYFCVRWAGYFDYWGQGTTLTVSS
VL: DIVLTQSPASLAVSLGQRATISCRASESVDSYGNSFMDWYQQKPGQPPKLLIYRASNLESGIPARFSGSGSRTDFTLIINPVEADDVATYYCQQSNEHPLTFGAGTKLELK

One assay deals with T1, receptor-binding domain (RBD) of the wild-type SARS-CoV-2 spike protein (SARS-CoV-2, UniProt P0DTC2 333-527).
T1 construct: also called SARS-CoV-2 RBD
Nature of the assay: BLI. Conditions: both partners purified.
In general, Kd refers to the free concentration of one partner at which half of the binding sites on the other are occupied at equilibrium, for simple one-to-one binding. Read a high Kd as weaker binding. B1 had a Kd of 0.618 nM.

Turning to B2, the Kd is < 0.001 nM.

Turning to B3, the dissociation constant Kd was determined as 8.87 nM.

Molecule B4 displayed a Kd of 0.0171 nM.

In turn, B5 registered a Kd of 0.173 nM.

The next assay deals with T1, receptor-binding domain (RBD) of the …. Nature of the assay: ELISA. Conditions: both partners purified. In general terms: In an ELISA, binding on a coated surface is turned into a signal by an enzyme label.
As usually defined, the EC50 is the concentration needed to bring the measured effect to its halfway point. Low readings indicate greater potency, high ones weaker potency. Turning to B6, the EC50 came to 0.0635 nM.

Molecule B7 had an EC50 of 0.0815 nM.

Take B8: a half-maximal response (EC50) required 0.134 nM.

As to B9, the EC50 was 0.321 nM.

As for B10, the EC50 came out at 0.393 nM.

In turn, B11 displayed an EC50 of 0.109 nM.

B12 registered an EC50 of 14.8 nM.

The molecule B13 had an EC50 of 0.189 nM.

On to B14, for which the EC50 amounted to 0.0895 nM.

Molecule B15 returned a half-maximal effective concentration (EC50) of 0.18 nM.

B16: the EC50 stood at 0.218 nM.

B17 registered a 50% effective concentration (EC50) of 82.3 nM.

B18 had an EC50 of 0.124 nM.

With B19, the response was half-maximal at 0.123 nM (EC50).

With B20, the EC50 was 0.153 nM.

The molecule B21 came in with an EC50 of 0.0896 nM.

Molecule B22 yielded an EC50 of 0.304 nM.

In turn, B23 yielded an EC50 of 0.202 nM.

B24 came in with an EC50 of 0.102 nM.

The molecule B25 showed an EC50 of 0.222 nM.

The next assay has the same target. Nature of the assay: cell-based or functional assay.
Conditions: not given
For the molecule B4, the other was determined as 83 ng/mL.
